Laboratory results published in PMC4570336.
Like-named read-outs stand apart in the source and are kept apart here.

Key:
[1] = system: Inactivated H5N1 avian influenza virus (whole virion) (Avian influenza virus H5N1 (Scotland/59))
[2] = system: Inactivated H5N1 avian influenza virus (whole virion) (Avian influenza virus H5N1 (Scotland/59)); test: SPR; settings: 5'-biotin; cited from earlier work
[3] = system: Inactivated H1N1 influenza virus (whole virion) (Avian influenza virus H1N1 (strain not stated)); settings: 5'-biotin; scale: ohm
[4] = system: Inactivated H2N2 influenza virus (whole virion) (Avian influenza virus H2N2 (strain not stated)); settings: 5'-biotin; scale: ohm
[5] = system: Inactivated H7N2 avian influenza virus (whole virion) (Avian influenza virus H7N2 (strain not stated)); settings: 5'-biotin; scale: ohm

Sequence	binding signal (ohm (impedance increase)) [1]	Kd [2]	binding signal (ohm (impedance increase)) ([1]; 5'-biotin)	binding signal [3]	binding signal [4]	binding signal [5]
CCGAATTCGAAGGACAAGAGGCGAAAAGATTTAAAGTAATCAAAGACTGAGCAACTCTTATCTTTTATGCTACGTCCCGC [control sequence (non-target aptamer)]	282	–	–	–	–	–
GTGTGCATGGATAGCACGTAACGGTGTAGTAGATACGTGCGGGTAGGAAGAAAGGGAAATAGTTGTCCTGTTG [H5N1 aptamer]	–	4.65 nM	61000	-2000	-2000	-2000
